Laboratory results taken from publication PMC5148762.

Biological target: protein G B1
Experiment: quartz crystal microbalance with dissipation monitoring (QCM-D); protein G B1 adsorbed from 5 ug/ml in PBS onto polystyrene-coated gold quartz sensors, rinsed, then IgG flowed at 5 ug/ml in PBS, 150 ul/min, pH 7.4, 22 °C; mass by the Sauerbrey equation

IgG antibody showed a Sauerbrey mass bound of 350 ng/cm^2.
